Results from publication PMC2749708.

How the values were obtained:
[1] = target: N-WASP GBD (amino acids 214-274) (UniProt O08816)
[2] = target: EspFU three-repeat fragment; experiment: AUC + other: binding assays
Sequence of EspFU three-repeat fragment (C6UYI3 whole entry, the tested form may be a part): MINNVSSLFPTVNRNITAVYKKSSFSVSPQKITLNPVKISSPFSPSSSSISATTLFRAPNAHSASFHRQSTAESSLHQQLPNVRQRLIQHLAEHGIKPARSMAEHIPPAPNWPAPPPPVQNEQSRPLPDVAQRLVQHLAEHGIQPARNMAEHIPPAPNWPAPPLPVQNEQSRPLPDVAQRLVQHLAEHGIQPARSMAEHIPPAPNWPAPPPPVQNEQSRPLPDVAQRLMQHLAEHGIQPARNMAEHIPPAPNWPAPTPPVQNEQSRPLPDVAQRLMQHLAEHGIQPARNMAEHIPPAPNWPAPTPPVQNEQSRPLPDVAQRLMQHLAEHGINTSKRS

Sequence of UniProt O08816 (O08816 214-274): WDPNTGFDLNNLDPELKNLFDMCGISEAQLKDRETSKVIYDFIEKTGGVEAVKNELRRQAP

## one EspFU repeat (domain or fragment)
[1]
  Kd: 18 nM

## N-WASP GBD (domain or fragment)
[2]
  stoichiometry N: 3
